Assay results: publication PMC4370504, “Structural Basis for Ubiquitin Recognition by Ubiquitin-Binding Zinc Finger of FAAP20” (PLoS ONE, 2015)

What was measured:
Assay in all cases: SPR; Biacore T200, Sensor Chip C1; GST-fused Ub or Ub2 captured by immobilised anti-GST antibodies (200-400 RU); FAAP20-UBZ injected 60 s at 10 uL/min; 25°C, HBS-P (10 mM HEPES-Na pH 7.4, 150 mM NaCl, 0.05% surfactant P20); equilibrium fit, 1:1 model; triplicate
Settings in all cases: both partners purified
[1] = molecular target: T1, GST-fused K63-linked diubiquitin (K63-Ub2) (UniProt P0CG48 1-76; P0CG48 1-76, K63R | additional aspartate residue at its C-terminal extremity (D77), K63-linked to the other Ub chain | K63-linked to the other Ub chain)
T1 construct: ubiquitin carrying the K63R mutation, GST-fused; ubiquitin with an additional aspartate residue at its C-terminal extremity (D77 Ub); Surmised: Gly76 of GST-K63R Ub (distal) is joined by an isopeptide bond to Lys63 of D77 Ub (proximal); also called K63-linked Ub2; GST-fused K63-Ub2

[2] = molecular target: T2, GST-fused M1-linked diubiquitin (M1-Ub2) (UniProt P0CG48 1-76; P0CG48 1-76)
T2 construct: ubiquitin, first (distal) moiety of the M1-linked (linear, head-to-tail) diubiquitin; ubiquitin, second (proximal) moiety, its Met1 joined to Gly76 of the first; Written as one chain of two ubiquitins, as M1-linked; also called M1-linked Ub2; GST-fused M1-Ub2; source: purified (Glutathione Sepharose FF, ResourceQ)

[3] = molecular target: T3, GST-fused K48-linked diubiquitin (K48-Ub2) (UniProt P0CG48 1-76; P0CG48 1-76, K48R | additional aspartate residue at its C-terminal extremity (D77), K48-linked to the other Ub chain | K48-linked to the other Ub chain)
T3 construct: ubiquitin carrying the K48R mutation, GST-fused; ubiquitin with an additional aspartate residue at its C-terminal extremity (D77 Ub); Surmised: Gly76 of GST-Ub K48R (distal) is joined by an isopeptide bond to Lys48 of D77 Ub (proximal); also called K48-linked Ub2; GST-fused K48-Ub2

[4] = molecular target: T1, GST-fused K63-linked diubiquitin …; remark: listed apart in the source
[5] = molecular target: T4, GST-fused ubiquitin (Ub) (UniProt P0CG48 1-76)
T4 construct: ubiquitin (Ub), the mature product of a ubiquitin precursor; Captured on the chip by anti-GST antibodies; source: purified (Glutathione Sepharose FF, ResourceQ)

[6] = molecular target: T4, GST-fused ubiquitin (Ub); remark: listed apart in the source

B1: FAAP20-UBZ (UBZ domain of FAAP20, residues 142-180), wild type (domain or fragment, human, UniProt Q6NZ36 142-180, looked up)
chain: AALRSCPMCQKEFAPRLTQLDVDSHLAQCLAESTEDVTW
notes: also called FAAP20-UBZ(wt); WT; source: E. coli Rosetta (DE3), purified (Glutathione Sepharose FF, ResourceQ, HRV3C cleavage, Superdex75); not shown: GST, N-terminal, cleaved
stoichiometry N [1]: 2
Kd [2]: 22.3 µM
Kd [3]: 39.1 µM
Kd [4]: 35.9 µM
Kd [5]: 19.9 µM

B2: FAAP20-UBZ A172L (domain or fragment, human, UniProt Q6NZ36 142-180, looked up)
chain: AALRSCPMCQKEFAPRLTQLDVDSHLAQCLLESTEDVTW
notes: human FAAP20, UBZ domain, residues 142-180; source: purified similarly to wild-type FAAP20-UBZ (E. coli Rosetta (DE3)); not shown: GST, N-terminal, cleaved
Kd [6]: 113 µM

B3: FAAP20-UBZ L161A (domain or fragment, human, UniProt Q6NZ36 142-180, looked up)
chain: AALRSCPMCQKEFAPRLTQADVDSHLAQCLAESTEDVTW
notes: as for B2
Kd [6]: 125 µM

B4: FAAP20-UBZ D177A (domain or fragment, human, UniProt Q6NZ36 142-180, looked up)
chain: AALRSCPMCQKEFAPRLTQLDVDSHLAQCLAESTEAVTW
notes: as for B2
Kd [6]: 218 µM
